Test results: US20120207760A1

Tests used:
[1] = target: recombinant homotrimeric HA, A/Anhui/1/05 H5N1 (Influenza A virus A/Anhui/1/05 (H5N1)); assay: trimeric HA microarray, transfection set 2
[2] = target: recombinant homotrimeric HA, A/California/4/09 H1N1 (Influenza A virus A/California/4/09 (H1N1)); assay: trimeric HA microarray, transfection set 2
[3] = target: recombinant homotrimeric HA, A/Egypt/3300-NAMRU3/08 H5N1 (Influenza A virus A/Egypt/3300-NAMRU3/08 (H5N1)); assay: trimeric HA microarray, transfection set 2
[4] = target: recombinant homotrimeric HA, A/Hong Kong/1073/99 H9N2 (Influenza A virus A/Hong Kong/1073/99 (H9N2)); assay: trimeric HA microarray, transfection set 2
[5] = target: recombinant homotrimeric HA, A/Hong Kong/2108/03 H9N2 (Influenza A virus A/Hong Kong/2108/03 (H9N2)); assay: trimeric HA microarray, transfection set 2
[6] = target: recombinant homotrimeric HA, A/Indonesia/5/05 H5N1 (Influenza A virus A/Indonesia/5/05 (H5N1)); assay: trimeric HA microarray, transfection set 2
[7] = target: recombinant homotrimeric HA, A/Japan/305/57 H2N2 (Influenza A virus A/Japan/305/57 (H2N2)); assay: trimeric HA microarray, transfection set 2
[8] = target: recombinant homotrimeric HA, A/Netherlands/219/03 H7N7 (Influenza A virus A/Netherlands/219/03 (H7N7)); assay: trimeric HA microarray, transfection set 2
[9] = target: recombinant homotrimeric HA, A/Solomon Islands/3/06 H1N1 (Influenza A virus A/Solomon Islands/3/06 (H1N1)); assay: trimeric HA microarray, transfection set 2
[10] = target: recombinant homotrimeric HA, A/South Carolina/1/18 H1N1 (Influenza A virus A/South Carolina/1/18 (H1N1)); assay: trimeric HA microarray, transfection set 2
[11] = target: recombinant homotrimeric HA, A/Vietnam/1203/04 H5N1 (Influenza A virus A/Vietnam/1203/04 (H5N1)); assay: trimeric HA microarray, transfection set 2
[12] = target: recombinant homotrimeric HA, A/Wisconsin/67/05 H3N2 (Influenza A virus A/Wisconsin/67/05 (H3N2)); assay: trimeric HA microarray, transfection set 2
[13] = target: recombinant homotrimeric HA, A/chicken/Vietnam/NCVD-016/08 H5N1 (Influenza A virus A/chicken/Vietnam/NCVD-016/08 (H5N1)); assay: trimeric HA microarray, transfection set 2
[14] = target: recombinant homotrimeric HA, A/common magpie/Hong Kong/5052/07 H5N1 (Influenza A virus A/common magpie/Hong Kong/5052/07 (H5N1)); assay: trimeric HA microarray, transfection set 2
[15] = target: recombinant homotrimeric HA, A/duck/Yangzhou/02/05 H8N4 (Influenza A virus A/duck/Yangzhou/02/2005 (H8N4)); assay: trimeric HA microarray, transfection set 2
[16] = target: recombinant homotrimeric HA, A/northern shoveler/California/HKWF115/07 (Influenza A virus A/northern shoveler/California/HKWF115/2007 (H6N1)); assay: trimeric HA microarray, transfection set 2
[17] = target: recombinant homotrimeric HA, A/swine/Ontario/01911-2/99 H4N6 (Influenza A virus A/swine/Ontario/01911-2/99 (H4N6)); assay: trimeric HA microarray, transfection set 2
[18] = target: recombinant homotrimeric HA, A/Egypt/3300-NAMRU3/08 H5N1 (Influenza A virus A/Egypt/3300-NAMRU3/08 (H5N1)); assay: trimeric HA microarray, transfection set 3
[19] = target: recombinant homotrimeric HA, A/Hong Kong/1073/99 H9N2 (Influenza A virus A/Hong Kong/1073/99 (H9N2)); assay: trimeric HA microarray, transfection set 3
[20] = target: recombinant homotrimeric HA, A/Netherlands/219/03 H7N7 (Influenza A virus A/Netherlands/219/03 (H7N7)); assay: trimeric HA microarray, transfection set 3
[21] = target: recombinant homotrimeric HA, A/common magpie/Hong Kong/5052/07 H5N1 (Influenza A virus A/common magpie/Hong Kong/5052/07 (H5N1)); assay: trimeric HA microarray, transfection set 3
[22] = target: recombinant homotrimeric HA, A/California/4/09 H1N1 (Influenza A virus A/California/4/09 (H1N1)); assay: trimeric HA microarray, transfection set 5
[23] = target: recombinant homotrimeric HA, A/Indonesia/5/05 H5N1 (Influenza A virus A/Indonesia/5/05 (H5N1)); assay: trimeric HA microarray, transfection set 5
[24] = target: recombinant homotrimeric HA, A/Japan/305/57 H2N2 (Influenza A virus A/Japan/305/57 (H2N2)); assay: trimeric HA microarray, transfection set 5
[25] = target: recombinant homotrimeric HA, A/Solomon Islands/3/06 H1N1 (Influenza A virus A/Solomon Islands/3/06 (H1N1)); assay: trimeric HA microarray, transfection set 5
[26] = target: recombinant homotrimeric HA, A/South Carolina/1/18 H1N1 (Influenza A virus A/South Carolina/1/18 (H1N1)); assay: trimeric HA microarray, transfection set 5
[27] = target: recombinant homotrimeric HA, A/Vietnam/1203/04 H5N1 (Influenza A virus A/Vietnam/1203/04 (H5N1)); assay: trimeric HA microarray, transfection set 5
[28] = target: recombinant homotrimeric HA, A/Wisconsin/67/05 H3N2 (Influenza A virus A/Wisconsin/67/05 (H3N2)); assay: trimeric HA microarray, transfection set 5
[29] = target: recombinant homotrimeric HA, A/swine/Ontario/01911-2/99 H4N6 (Influenza A virus A/swine/Ontario/01911-2/99 (H4N6)); assay: trimeric HA microarray, transfection set 5
[30] = target: hemagglutinin (HA) of influenza A/Solomon Islands/3/06 H1N1 (Influenza A virus A/Solomon Islands/3/2006 (H1N1)); assay: ELISA, inactivated whole virions coated; transfection supernatant set 2
[31] = target: hemagglutinin (HA) of influenza A/Japan/305/57 H2N2 (Influenza A virus A/Japan/305/1957 (H2N2)) (UniProt P03451); assay: ELISA, inactivated whole virions coated; transfection supernatant set 3
[32] = target: hemagglutinin (HA) of influenza A/Solomon Islands/3/06 H1N1 (Influenza A virus A/Solomon Islands/3/2006 (H1N1)); assay: as above
[33] = target: hemagglutinin (HA) of influenza A/Wisconsin/67/05 H3N2 (Influenza A virus A/Wisconsin/67/2005 (H3N2)); assay: as above

Substance: TCN-202 (2N9) (antibody)
- Trimeric HA Binding RLU [1]: 9 RLU
- Trimeric HA Binding RLU [2]: 52 RLU
- Trimeric HA Binding RLU [3]: 18 RLU
- Trimeric HA Binding RLU [4]: 33 RLU
- Trimeric HA Binding RLU [5]: 7 RLU
- Trimeric HA Binding RLU [6]: 8 RLU
- Trimeric HA Binding RLU [7]: 32 RLU
- Trimeric HA Binding RLU [8]: 26 RLU
- Trimeric HA Binding RLU [9]: 16 RLU
- Trimeric HA Binding RLU [10]: 195 RLU
- Trimeric HA Binding RLU [11]: 121 RLU
- Trimeric HA Binding RLU [12]: 46 RLU
- Trimeric HA Binding RLU [13]: 22 RLU
- Trimeric HA Binding RLU [14]: 11 RLU
- Trimeric HA Binding RLU [15]: 19 RLU
- Trimeric HA Binding RLU [16]: 30 RLU
- Trimeric HA Binding RLU [17]: 15 RLU
- Trimeric HA Binding RLU [18]: 63 RLU
- Trimeric HA Binding RLU [19]: 57 RLU
- Trimeric HA Binding RLU [20]: 247 RLU
- Trimeric HA Binding RLU [21]: 16 RLU
- Trimeric HA Binding RLU [22]: 733 RLU
- Trimeric HA Binding RLU [23]: 1970 RLU
- Trimeric HA Binding RLU [24]: 1880 RLU
- Trimeric HA Binding RLU [25]: 525 RLU
- Trimeric HA Binding RLU [26]: 5330 RLU
- Trimeric HA Binding RLU [27]: 30000 RLU
- Trimeric HA Binding RLU [28]: 581 RLU
- Trimeric HA Binding RLU [29]: 2690 RLU
- OD450 [30]: 0.08 OD450
- OD450 [31]: 0.08 OD450
- OD450 [32]: 0.1 OD450
- OD450 [33]: 0.08 OD450
